# Data published in paper PMC7092807 (Biochemical and Biophysical Research Communications, 2004).
# Biological target: the molecule itself
# Experiment: SEC
protein,measurement,value
SARS-CoV soluble S ectodomain (Se) (domain or fragment) not shown,stoichiometry N,3
